Measurements reported in the supplement of paper PMC11780869.

Tested on: Bacillus subtilis
Test: cleaved RNA product abundance (RNA/gDNA barcode ratio) relative to median wild-type variant (ratio to wild type); higher = more accumulation of the downstream cleavage product
Summary of the method: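 Reporter mRNAs (truncated aprE or tetM) carrying barcoded, mutagenized RNase Y cleavage-site windows were made from oligos with a 9% error rate and integrated into the B. subtilis chromosome. Cultures grew in LB at 37°C from OD600 0.0003 to 0.3. Cleaved RNA was gel-selected, reverse transcribed and barcode-sequenced alongside genomic DNA barcodes, with UMI collapsing. Cleaved product abundance is the RNA:gDNA barcode ratio per variant, scaled to the median wild-type variant.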

[1] = experiment (reporter, strain, medium): exp 8a: truncated aprE reporter, strain BJT201 with 2% xylose (RNase J1 expressed), cleavage site: glnRA (positions -5 to +31 mutated)
[2] = experiment (reporter, strain, medium): exp 2b: truncated aprE reporter, strain BJT200, cleavage site: cggR-gapA (positions -7 to +36 mutated)
[3] = experiment (reporter, strain, medium): exp 4a: truncated aprE reporter, strain BJT201 with 2% xylose (RNase J1 expressed), cleavage site: cggR-gapA (positions -7 to +36 mutated)
[4] = experiment (reporter, strain, medium): exp 6: tetM reporter, strain 168, cleavage site: cggR-gapA (positions -7 to +36 mutated)

| Sequence | cleaved RNA product abundance [2] | cleaved RNA product abundance [3] | further results |
| --- | --- | --- | --- |
| CGACATGTCCCGCTTCTTTCATTAATCCGTTAGCAACTGATTTGCTATATACATTTACTTTTTAAGAGGAGGAAT |  |  | cleaved RNA product abundance [1]: 1.06 |
| ACAGACGAAGGAGCCGCAAAGAAGTTATTATGGGAAGAATAATCCCTCAATATAAATATCTCTCACTTATTTAAA | 0.159 | 0.246 |  |
| ACAGACGAAGGAGCCGCAAAGAAGTTATAAAGGGATGAATAATCCATCAATATAAATATCTCTCACTTATTTAAA |  | 0.26 |  |
| ACAGACGAAGGAGCCGCAAAGAACTTATTAAGGGATGAATAATCTCTCAATATAAATATCTCTCACTTATTTAAA |  | 0.418 |  |
| CGACATGTCCCGCTTCTTTCATTAATCCGTTAGCAACTGTTTTGCTATATACAGTTACCTTTTAAGAGGAGGAAT |  |  | cleaved RNA product abundance [1]: 0.464 |
| ACAGACGAAGGAGCCGCATAGAAGTTATTAAGGGATGAATAATCCCTCAATAGAAATATCTCTCACTTATTTAAA |  | 0.149 |  |
| ACAGACGAAGGAGCCGCAATGAAGTTATTAAGTGATGAATAATCCCTCAATATAAATATCTCTCACTTATTTAAA | 0.0987 |  |  |
| ACAGACGAAGGAGCCGCAAATAAGTTATTAAGGTATGAATAAACCCTCAATATAAATATCTCTCACTTATTTAAA | 0.118 |  |  |
| ACAGACGAAGGAGCCGCAAAGAAGTTATTAAGGGATGAATATTCCCTTAATATAAATATCTCTCACTTATTTAAA | 1.01 | 0.526 |  |
| CGACATGTCCCGCTTCTTTCATTAATCCGTTAGCAACTGTTTTGCTATATACATCTACATTTTAAGAGGAGGAAT |  |  | cleaved RNA product abundance [1]: 1.27 |
| ACAGACGAAGGAGCCGCAAATAAGTTATTAAGGGATGAATAATCCCTCAATATAAATTTCTCTCACTTATTTAAA |  | 0.862 |  |
| ACAGACGAAGGAGCCGCAAAGAAGTTATTAAGGGTTGAATAATCCATCAATATAAATATCTCTCACTTATTTAAA |  | 0.205 |  |
| ACAGACGAAGGAGCCGCAAATAAATTATTAAGGGATGAATAATACCTCAATATAAATATCTCTCACTTATTTAAA |  | 0.0858 |  |
| ACAGACGAAGGAGCCGCAAAGAAGTTATTAAGGAATGAATAATCCATCAATATAAATATCTCTCACTTATTTAAA | 0.0915 | 0.124 |  |
| ACAGACGAAGGAGCCGCAAAGAAGTTATTAAGGGACGAATAATCCCTAAATATAAATATCTCTCACTTATTTAAA |  | 0.287 |  |
| CGACATGTCCCGCTTCTTTCATTATTCCGTTAGCAACGGTTTTGCTATATACATTTACCTTTTAAGAGGAGGAAT |  |  | cleaved RNA product abundance [1]: 0.56 |
| ACAGACGAAGGAGCCGCTAAGAAGATATTAAGGGATGAATAATCCCTCAATATAAATATCTCTCACTTATTTAAA | 0.625 |  |  |
| CGACATGTCCCGCTTCTTTCATTATTCCGTTAGCAACTGCTTTGCTATATACATTTACCTTTTAAGAGGAGGAAT |  |  | cleaved RNA product abundance [1]: 0.681 |
| ACAGACGAAGGAGCCGCAAAGAAGTTATGAAGGGATGAATAATCCCTCTATATAAATATCTCTCACTTATTTAAA |  | 0.516 |  |
| CGACATGTCCCGCTTCTTTCATTAATCCGTTAGCAACTGTTTTGCTAAATACCTTTACCTTTTAAGAGGAGGAAT |  |  | cleaved RNA product abundance [1]: 0.165 |
| ACAGACGAAGGAGCCGCAAAGAAGTTATTAATGGTTGAATAATCCCTCAATATAAATATCTCTCACTTATTTAAA | 0.107 | 0.121 |  |
| CGACATGTCCCGCTTCTTTCATTAATCCGTTAGCAATTGTTTTGCTTTATACATTTACCTTTTAAGAGGAGGAAT |  |  | cleaved RNA product abundance [1]: 0.361 |
| CGACATGTCCCGCTTCTTTCATTAATCCGTTAGCAAATGTTTTGCTATATACATTTACTTTTTAAGAGGAGGAAT |  |  | cleaved RNA product abundance [1]: 1.2 |
| ACAGACGAAGGAGCCGCAAATAAGTTATTAAGGGATGAATAATCCCCCAATATAAATATCTCTCACTTATTTAAA |  | 0.23 |  |

| Sequence | cleaved RNA product abundance [2] | cleaved RNA product abundance [3] | further results |
| --- | --- | --- | --- |
| CGACATGTCCCGCTTCTTTCATTATTCTGTTAGCAACTGTTTTGCTATATACAGTTACCTTTTAAGAGGAGGAAT |  |  | cleaved RNA product abundance [1]: 0.717 |
| ACAGACGAAGGAGCCGCAAAGACGTTATTAAGGGATGAATAATCCCTCAATATAAATATCTCTCACTTATTTAAA | 0.978 | 1.02 | cleaved RNA product abundance [4]: 1.12 |
| CGACATGTCCCGCTTCTTTCATTAATCCGTTAGCAACTGTGTTGCTATATACATTTACATTTTAAGAGGAGGAAT |  |  | cleaved RNA product abundance [1]: 0.517 |
| ACAGACGAAGGAGCCGCAAAGAAGTTATTAAGGAATGAATGATCCCTCAATATAAATATCTCTCACTTATTTAAA |  | 0.0629 |  |
| ACAGACGAAGGAGCCGCAAAGAACTTATTAAGGAATGAATAATCCCTCAATATAAATATCTCTCACTTATTTAAA |  | 0.117 |  |
| CGACATGTCCCGCTTCTTTCATTAATCCGTTAGCAACAGTTTTGCTATATACAATTACCTTTTAAGAGGAGGAAT |  |  | cleaved RNA product abundance [1]: 0.601 |
| ACAGACGAAGGAGCCGCAAAGAAGTTATTAAGGGATGAATAATCCCTCAATGTAAATATCTCTCACTTATTTAAA | 0.139 | 0.13 | cleaved RNA product abundance [4]: 0.154 |
| ACAGACGAAGGAGCCGCAAAGAAGTTTTTAAGGGATGAATAATCCCTCAACATAAATATCTCTCACTTATTTAAA |  | 0.295 |  |
| ACAGACGAAGGAGCCGCACAGAAGTTATTCAGGGATGAATAATCCCTCAATATAAATATCTCTCACTTATTTAAA |  | 1.28 |  |
| CGACATGTCCCGCTTCTTTCATAATCCGTTAGCAACTGTTTTGCTATATACATTTACCTTTTAAGAGGAGGAATT |  |  | cleaved RNA product abundance [1]: 1.13 |
| ACAGACGAAGGAGCCGCATAGAAGTTATTAAGGGAAGAATAATCCCTCAATATAAATATCTCTCACTTATTTAAA |  | 0.6 |  |
| ACAGACGAAGGAGCCGCAAAGGAGTTATTAAAGGATGAATAATCCCTCAATATAAATATCTCTCACTTATTTAAA | 0.161 | 0.108 |  |
| ACAGACGAAGGAGCCGCAAAGAAGTTATTAAGGGATGAATAATCGCTCAATATAAATACCTCTCACTTATTTAAA | 0.0956 |  |  |
| ACAGACGAAGGAGCCGCAAAGAAGTTATTAAAGGATGAATAATCCGTCAATATAAATATCTCTCACTTATTTAAA | 0.16 | 0.161 |  |
| ACAGACGAAGGAGCCGCAAAGAAGTTATTACCGGATGAATAATCCCTCAATATAAATATCTCTCACTTATTTAAA |  | 0.155 |  |
| ACAGACGAAGGAGCCGCAAAGAAGTTATTAAGGGATGACTAATCCCTCAAGATAAATATCTCTCACTTATTTAAA |  | 0.247 |  |
| CGACATGTCCCGCTTCTTTCATTAATCCTTTAGCAACTGTTATGCTATATACATTTACCTTTTAAGAGGAGGAAT |  |  | cleaved RNA product abundance [1]: 0.471 |
| ACAGACGAAGGAGCCGCAAAGAAGTTATTAAGGGTTGAATAATCCCTCAACATAAATATCTCTCACTTATTTAAA |  | 0.237 |  |
| ACAGACGAAGGAGCCGCAAAGAAGTTATTAAGGGATGAATCAGCCCTCAATATAAATATCTCTCACTTATTTAAA |  | 0.813 |  |
| CGACATGTCCCGCTTCTTTCATTAATCCGTTAGCTACTGTTTTGCTATATGCATTTACCTTTTAAGAGGAGGAAT |  |  | cleaved RNA product abundance [1]: 0.368 |
| ACAGACGAAGGAGCCGCAAAGAAGTTATTAATGGATGAATAATCCCTCAATATAAATAACTCTCACTTATTTAAA | 0.115 | 0.23 |  |
| ACAGACGAAGGAGCCGCAAAGAAGTTATTAAGGGATGAATACTCCCTAAATATAAATATCTCTCACTTATTTAAA | 0.366 |  |  |
| ACAGACGAAGGAGCCGCAAAGAAGTTATTAAGGGATGAAAAATCCCTCAATATAAATATCTCTCACTTATTTAAA | 0.78 | 0.781 | cleaved RNA product abundance [4]: 0.985 |
